# Biological target: CM19XA (UniProt P15391)
# Experiment: SEC; ENrich SEC 650 column on an NGC system, running buffer PBS, peak positions compared with BioRad size exclusion standards; after Ni-NTA purification
substance,measurement,value
CM19XA (from UniProt P15391 20-291; Q9Y624 28-238),stoichiometry N,2
